Results: patent US20250250308A1, “METHODS AND COMPOSITIONS WITH ANTIFUNGAL ACTIVITY” (priority 2022, published 2025)

B1: EntV: 68 amino acid active C-terminal form of the E. faecalis bacteriocin EntV (SEQ ID NO: 14) (protein, listed as Enterococcus faecalis)
chain: LGSCVANKIKDEFFAMISISAIVKAAQKKAWKELAVTVLRFAKANGLKTNAIIVAGQLALWAVQCGLS

Assays:
C. neoformans = assay: Survival of C. elegans infected with C. neoformans; format: in vivo; conditions: 1 nM peptide
Method: FIGS. 6A-6D: EntV peptides have activity against many fungal species and strains. Survival over time of C. elegans infected with C. auris, (FIG. 6A), C. neoformans, (FIG. 6B), and C. albicans, (FIG. 6C), paired clinical isolates before (AzS: fluconazole-susceptability) and after gaining fluconazole resistance (AzR), (FIG. 6D). Peptides were added at 1 nM and fluconazole at 4 ug/ml. Statistical differences in survival were compared to animals to the DMSO vehicle control by Mantel-Cox log rank analysis. An n of 60 was used and one representative trial is shown. Exact p values from top to bottom: (FIG. 6A) <0.0001, <0.0001, (FIG. 6B) <0.0001, <0.0001, (FIG. 6C) 0.0013, 0.0004, 0.0035, (FIG. 6D) 0.0050, 0.0040, 0.5539.
EntV peptides have activity against other fungal species and strains. […] Paired clinical isolates of C. albicans, in which fluconazole-resistance had been gained following in-patient evolution were tested and it was determined that animals infected with both the original strain as well as the fluconazole-resistant descendent were protected by EntV ([…]).
Killing of C. elegans by C. albicans. […] Plates were incubated at 25° C., and worm death was scored daily. Kaplan-Meier survival curves were generated and analyzed as described in the quantification and statistical analysis section.

mouse cells = conditions: cited from earlier work
C. albicans = assay: Killing of C. elegans by C. albicans (survival of infected nematodes); format: in vivo; conditions: original strain and fluconazole-resistant descendent; 1 nM
human cells = conditions: cited from earlier work

Molecule	Survival of C. elegans infected with C. neoformans (C. neoformans)	Toxicity to mouse cells (mouse cells)	Protection of C. elegans infected with paired C. albicans clinical isolates (C. albicans)	Toxicity to human cells (human cells)
VAGQLALWAVQC [12aa]	protected C. neoformans infected worms from death	–	–	–
B1	–	no toxicity	protected	no toxicity
